Here are results for three molecules from publication PMC11092324 (Journal of Virology, 2024).

Settings in all cases: both partners purified
Assay [1] concerns the target T1, GI.9 Vancouver virus-like particles (VP1 protein of the norovirus GI.9 Vancouver strain) (Norovirus Hu/GI.9/Vancouver730/2004/CAN, UniProt F2XMU3, strain).
T1 construct: also called Vancouver VLPs; GI.9 Vancouver VP1
Briefly: ELISA; sandwich ELISA: Strep-tagged CV-2F5 scFv (0.7 µM in PBS) held on Strep-Tactin-coated wells, VLPs added in twofold serial dilutions, 37°C 2 h, detected with rabbit anti-VLP antisera; data fit to the Michaelis-Menten equation, Km taken as Kd (affinity or avidity); concentration counted as VP1.

Assay [2] has as its target T2, P domain of the VP1 protein from the GI.4 Chiba strain (P dimer) (norovirus GI.4 Chiba strain).
T2 construct: also called Chiba P domain protein; Chiba P dimers; source: E. coli cell-free protein synthesis system, purified (HisTrap, SUMO protease, HiTrapQ)
T2 chain: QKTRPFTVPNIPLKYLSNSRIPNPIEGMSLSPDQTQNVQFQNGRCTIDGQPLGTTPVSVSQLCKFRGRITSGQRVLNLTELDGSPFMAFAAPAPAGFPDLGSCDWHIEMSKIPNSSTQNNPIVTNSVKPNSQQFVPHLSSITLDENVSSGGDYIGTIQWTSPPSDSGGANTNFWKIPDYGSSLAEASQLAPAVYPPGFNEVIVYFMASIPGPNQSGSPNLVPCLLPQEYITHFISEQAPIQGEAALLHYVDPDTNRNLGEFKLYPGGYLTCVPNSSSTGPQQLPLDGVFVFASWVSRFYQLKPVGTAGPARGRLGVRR
Kind of assay: crystal structure; Chiba P domain mixed with CV-2F5 scFv in a molar ratio of 1:1.2, complex isolated by size-exclusion chromatography, crystallized by sitting drop at 25°C in 35% Tacsimate pH 7.0. Background: In gel filtration, larger molecules generally elute earlier.

For assay [3], the target named is T1, GI.9 Vancouver virus-like particles …. Kind of assay: ELISA; sandwich ELISA: CV-1A1 Fv-clasp or scFv (0.7 µM in 50 mM carbonate buffer pH 9.6) coated on high-binding microplates, VLPs added in twofold serial dilutions, 37°C 2 h, detected with rabbit anti-VLP antisera; data fit to the Michaelis-Menten equation, Km taken as Kd (affinity or avidity); concentration counted as VP1.

B1: Strep-tagged CV-2F5 scFv (scFv, V domains shown)
VH: EVQLVESGGGLVKPGGSLRLSCAASGFTFSSYNMNWVRQAPGKGLEWVSSISTSSRYIYYADSVKGRFTISRDNAKNSLYLQMNSLRAEDTAVYYCAREEGSVDYGMDVWGQGTTVTVSS
VL: not shown
notes: also called CV-2F5-Strep; source: E. coli harboring pETSUMO-CV-2F5-Strep, purified (TALON resin, SUMO protease on the resin); not shown: His tag, N-terminal, cleaved; SUMO, N-terminal, cleaved; Strep-tag, C-terminal, kept
For the molecule B1, the Kd in assay [1] is 0.0144 µM.

B2: CV-2F5 scFv (N11-TEV construct, tag removed) (scFv, V domains shown)
VH: B1 VH
VL: not shown
notes: also called CV-2F5 antibody fragment; CV-2F5 scFv antibodies; source: E. coli cell-free protein synthesis system, purified (HisTrap, TEV protease, HiTrap SP)
In general, stoichiometry N refers to a count of units in the complex or per binding partner. Take B2: the “stoichiometry N” value in assay [2] was found to be 1.

B3: CV-1A1 Fv-clasp (other)
VH: EVQLVESGAEVKKPGASVKVSCKASGYTFTSLYMHWVRQAPGQGLEWMGMINPSGGGTWNAQKFQGRVTMTRDTSTSTVYMELRSLRSDDTAMYYCARDSDQYSQGLGYWGQGTLVTVCS
VL: QSALTQPASVSGSPGQSITISCTGTSSDVGGYNYVSWYQQHPGKAPKLMIYDVSKRPSGVSNRFSGSKSGNTASLTISGLQAKDEADYYCSSYTSSSTWVFGGGTKLTVL
notes: also called CV-1A1 Fv-clasp fragments; Fv-clasp version of CV-1A1; source: E. coli cell-free protein synthesis system (with DsbC and Skp), purified (HisTrap, TEV protease, HiTrap Q)
In the case of B3, the binding result in assay [3] is on record as “no binding”.
